Source: patent US20250320305A1 (Hoffmann-La Roche, published 2025)
Where a chain is given by its changes, count along the chain named. Names and notes keep the numbering of the source.

B1: P1AF0873, CD40 (P1AE0817) x FAP (P1AE1689) (1+1) C-terminal crossfab fusion (bispecific antibody, human IgG1, kappa, L234A L235A)
light 1: QVQLVQSGAEVKKPGASVKVSCKASGYTLTDYNMDWVRQAPGQGLEWIGDIYPNTGGTIYNQKFKGRVTMTIDTSTSTVYMELSSLRSEDTAVYYCTRFRGIHYAMDYWGQGTTVTVSSASVAAPSVFIFPPSDEQLKSGTASVVCLLNNFYPREAKVQWKVDNALQSGNSQESVTEQDSKDSTYSLSSTLTLSKADYEKHKVYACEVTHQGLSSPVTKSFNRGEC
light 2: DIVMTQTPLSLSVTPGQPASISCRSSQSLVHSNGNTFLHWYLQKPGQSPQLLIYTVSNRFSGVPDRFSGSGSGTDFTLKISRVEAEDVGVYFCSQTTHVPWTFGGGTKVEIKRTVAAPSVFIFPPSDRKLKSGTASVVCLLNNFYPREAKVQWKVDNALQSGNSQESVTEQDSKDSTYSLSSTLTLSKADYEKHKVYACEVTHQGLSSPVTKSFNRGEC
heavy: not shown
chain: not shown
B2: P1AE1690_Fab, humanized anti-FAP clone 212 variant VH1G2a/VL1G1a (Fab, V domains shown)
VH: QVQLVQSGAEVKKPGASVKVSCKASGYTLTDYNMDWVRQAPGKSLEWIGDIYPNTGGTIYNQKFKGRVTMTIDKSTSTVYMELSSLRSEDTAVYYCTRFRGIHYAMDYWGQGTTVTVSS
VL: EIVLTQSPATLSLSPGERATLSCRASESVDNYGLSFINWFQQKPGQAPRLLIYGTSNRGSGIPARFSGSGSGTDFTLTISSLEPEDFAVYFCQQSNEVPYTFGGGTKVEIK
notes: Fab
B3: P1AE1693_Fab, humanized anti-FAP clone 212 variant VH1G2a/VL1G2a (Fab, V domains shown)
VH: B2 VH
VL: B2 VL with A47P
notes: Fab
B4: P1AE1689_Fab, humanized anti-FAP clone 212 variant VH1G1a/VL1G1a (Fab, V domains shown)
VH: B2 VH with K43Q, S44G, K74T
VL: B2 VL
notes: Fab
B5: P1AE1702_Fab, humanized anti-FAP clone 212 variant with VL2G2a (Fab, V domains shown)
VH: EVQLLESGGGLVQPGGSLRLSCAASGYTLTDYNMDWVRQAPGKGLEWVGDIYPNTGGTIYNQKFKGRFTISIDKSKNTAYLQMNSLRAEDTAVYYCTRFRGIHYAMDYWGQGTTVTVSS
VL: DIQMTQSPSSLSASVGDRVTITCRASESVDNYGLSFINWFQQKPGQPPKLLIYGTSNRGSGVPSRFSGSGSGTDFTLTISSLQPEDFAMYFCQQSNEVPYTFGGGTKVEIK
notes: Fab
B6: P1AE2734, CD40 (P1AE0817) x FAP (P1AE1689) (2+1) with different C-terminal crossfab fusion (bispecific antibody, human IgG1, kappa, L234A L235A)
light 1: EIVLTQSPATLSLSPGERATLSCRASESVDNYGLSFINWFQQKPGQAPRLLIYGTSNRGSGIPARFSGSGSGTDFTLTISSLEPEDFAVYFCQQSNEVPYTFGGGTKVEIKSSASTKGPSVFPLAPSSKSTSGGTAALGCLVKDYFPEPVTVSWNSGALTSGVHTFPAVLQSSGLYSLSSVVTVPSSSLGTQTYICNVNHKPSNTKVDKKVEPKSC
light 2: B1 light 2 with R128E, K129Q
heavy 1: not shown
heavy 2: QVQLVQSGAEVKKPGASVKVSCKASGYSFTGYYIHWVRQAPGQSLEWMGRVIPNAGGTSYNQKFKGRVTLTVDKSISTAYMELSRLRSDDTAVYYCAREGIYWWGQGTTVTVSSASTKGPSVFPLAPSSKSTSGGTAALGCLVKDYFPEPVTVSWNSGALTSGVHTFPAVLQSSGLYSLSSVVTVPSSSLGTQTYICNVNHKPSNTKVDKKVEPKSCDKTHTCPPCPAPEAAGGPSVFLFPPKPKDTLMISRTPEVTCVVVDVSHEDPEVKFNWYVDGVEVHNAKTKPREEQYNSTYRVVSVLTVLHQDWLNGKEYKCKVSNKALGAPIEKTISKAKGQPREPQVCTLPPSRDELTKNQVSLSCAVKGFYPSDIAVEWESNGQPENNYKTTPPVLDSDGSFFLVSKLTVDKSRWQQGNVFSCSVMHEALHNHYTQKSLSLSPG
notes: bivalent for CD40, monovalent for FAP; also called VH-Ckappa fused to Fc
B7: P1AE0998, humanized anti-CD40 antibody VH1c/VL1d, huIgG1_LALA_PG (antibody, V domains shown)
VH: QVQLVQSGAEVKKPGASVKVSCKASGYSFTGYYIHWVRQAPGQSLEWMGRVIPNAGGTSYNQKFKGRVTLTVDKSISTAYMELSRLRSDDTAVYYCAREGIYWWGHGTTVTVSS
VL: DVVVTQTPLSLSVTPGQPASISCRSSQSLVHSNGNTFLHWYLQKPGQSPQLLIYTVSNRFSGVPDRFSGSGSGTDFTLKISRVEAEDVGVYFCSQTTHVPWTFGGGTKLEIK
notes: huIgG1 with effector silent Fc (P329G, L234A, L235A)
B8: P1AE1001, humanized anti-CD40 antibody VH1a/VL1b, huIgG1_LALA_PG (antibody, V domains shown)
VH: B7 VH with H106Q
VL: B7 VL with V2I, L109V
notes: as for B7
B9: P1AE1003, humanized anti-CD40 antibody VH1b/VL1b, huIgG1_LALA_PG (antibody, V domains shown)
VH: B7 VH with Q43K, H106Q
VL: B7 VL with V2I, L109V
notes: as for B7
B10: P1AE1006, humanized anti-CD40 antibody VH1c/VL1b, huIgG1_LALA_PG (antibody, V domains shown)
VH: B7 VH
VL: B7 VL with V2I, L109V
notes: as for B7
B11: P1AE1002, humanized anti-CD40 antibody VH1b/VL1a, huIgG1_LALA_PG (antibody, V domains shown)
VH: B7 VH with Q43K, H106Q
VL: B7 VL with V2I, V4M, L109V
notes: as for B7
B12: P1AE0999, humanized anti-CD40 antibody VH1d/VL1a, huIgG1_LALA_PG (antibody, V domains shown)
VH: B7 VH with T71S, H106Q
VL: B7 VL with V2I, V4M, L109V
notes: as for B7
B13: P1AE1000, humanized anti-CD40 antibody VH1d/VL1c, huIgG1_LALA_PG (antibody, V domains shown)
VH: B7 VH with T71S, H106Q
VL: B7 VL with L109V
notes: as for B7
B14: P1AE1005, humanized anti-CD40 antibody VH1b/VL1d, huIgG1_LALA_PG (antibody, V domains shown)
VH: B7 VH with Q43K, H106Q
VL: B7 VL
notes: as for B7
B15: P1AE1007, humanized anti-CD40 antibody VH1d/VL1b, huIgG1_LALA_PG (antibody, V domains shown)
VH: B7 VH with T71S, H106Q
VL: B7 VL with V2I, L109V
notes: as for B7
B16: P1AE1004, humanized anti-CD40 antibody VH1b/VL1c, huIgG1_LALA_PG (antibody, V domains shown)
VH: B7 VH with Q43K, H106Q
VL: B7 VL with L109V
notes: as for B7

These binders were tested against T1, human CD40 expressed on cells (human, UniProt P25942 21-277) (assay: cell-based or functional assay).

EC50, two cell line bridging assay (SEAP of HEK-Blue CD40L reporter cells with FAP-expressing WM-266-4 cells) [nM]	Binder
0.0265	B1

These binders were tested against T2, biotinylated recombinant human FAP (human, UniProt Q12884 26-760, biotinylated) (assay: SPR (Biacore)).
T2 construct: also called biotinylated human FAP

Kd [nM]	T ½ [h]	koff [s⁻¹]	kon [M⁻¹ s⁻¹]	Binder
0.114	3.05	6.3e-05	551000	B2
0.135	2.68	7.18e-05	530000	B3
0.095	4.57	4.21e-05	443000	B4
0.213	1.8	0.000107	502000	B5

What follows are binders tested against T3, His-tagged human FAP ectodomain (human, UniProt Q12884 27-760) (assay: SPR, His-tagged human FAP ectodomain as ligand).
T3 construct: also called hu FAP ectodomain+poly-lys-tag+his6-tag; His-tagged FAP antigen

Kd [nM]	koff [s⁻¹]	kon [M⁻¹ s⁻¹]	Binder
0.21	5.2e-05	250000	B6

These binders were tested against T1, human CD40 expressed on cells (assay: flow cytometry, Raji cells;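 note: cell binding of antibodies to Raji cells detected by flow cytometry using an Alexa488-labelled anti-human IgG secondary antibody, primary incubation 1 h at 4 °C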).
Experimental: CD40 positive cells (Raji cells) were detatched from the culture bottle using Trypsin and were counted using a Casy cell counter. After pelleting at 4° C., the cells were resuspended in FACS Buffer (2.5% FCS in PBS), adjusted to 2.0E+06 cells/mL, and dispensed to 96-well PP V-bottom-plates (25 μL/well=5.0E+04Zellen/well).
The CD40 specific antibodies were adjusted to 20 μg/mL in FACS buffer, resulting in a final concentration of 10 μg/mL. 20 μl were added to 25 μl cell suspension and incubated for 1 h at 4° C. The cells were then washed twice in FACS buffer. After washing, the cells were resuspended in 50 μL FACS-buffer containing secondary antibody (<huIgG>-Alexa488, c=10 μg/mL) and incubated 1 h bei 4° C. The cells were then washed twice in FACS buffer and resuspended in 70 μl/well FACS buffer for measurement using a FACS Canto (BD, Pharmingen).

EC50 [µg/mL]	Binder
0.12	B7
0.08	B8
0.13	B9
0.14	B10
0.13	B11
0.15	B12
0.14	B13
0.11	B14
0.12	B15
0.14	B16

What follows are binders tested against T4, human CD40 extracellular domain with C-terminal His-AviTag (human, UniProt P25942 21-193) (assay: SPR, antibody captured, CD40 ECD analyte;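 note: biacore SPR at 25 °C in PBS-T pH 7.4, CD40 ECD analyte from 300 nM in 1:3 series, 300 s association, up to 1200 s dissociation, double-referenced, Langmuir 1:1 fit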).
T4 construct: not shown: C-terminal His-AviTag

Kd [nM]	koff [s⁻¹]	kon [M⁻¹ s⁻¹]	Binder
3.3	0.00896	2.7e+06	B7
2.7	0.00681	2.56e+06	B8
2.5	0.00606	2.46e+06	B9
2.6	0.00651	2.53e+06	B10
2.2	0.00557	2.54e+06	B11
2.4	0.00592	2.45e+06	B12
3.2	0.00862	2.68e+06	B13
3.2	0.00816	2.58e+06	B14
2.7	0.00662	2.5e+06	B15
3	0.00795	2.63e+06	B16
